What was measured:
HLA-B*45:06 = assay: IEDB peptide-MHC binding, purified MHC/competitive/fluorescence; filed as Kd, often an IC50 or EC50 that approximates it; ≥ and ≤ were set here for values at or beyond the usual limits of such assays
HLA-B*83:01 = assay: as above
HLA-B*15:42 = assay: as above
HLA-A*03:01 = assay: IEDB peptide-MHC binding, purified MHC/direct/fluorescence; filed as Kd, often an IC50 or EC50 that approximates it; ≥ and ≤ were set here for values at or beyond the usual limits of such assays
HLA-B*58:01 [1] = assay: as above
HLA-B*08:01 = assay: as above
HLA-B*40:01 = assay: as above
HLA-A*02:01 [2] = assay: as above
HLA-B*27:05 = assay: as above
HLA-A*31:01 = assay: as above
HLA-A*01:01 [3] = assay: as above
HLA-A*11:01 = assay: as above
HLA-A*69:01 = assay: as above
HLA-B*07:02 = assay: as above
HLA-B*15:01 [4] = assay: as above
HLA-A*26:01 [5] = assay: as above; conditions: source organism: Corynebacterium glutamicum
HLA-B*15:01 [6] = assay: IEDB peptide-MHC binding, purified MHC/competitive/fluorescence; filed as Kd, often an IC50 or EC50 that approximates it; ≥ and ≤ were set here for values at or beyond the usual limits of such assays
HLA-A*30:01 [7] = assay: as above; conditions: source organism: Mycobacterium tuberculosis C
HLA-B*48:01 = assay: IEDB peptide-MHC binding, purified MHC/direct/fluorescence; filed as Kd, often an IC50 or EC50 that approximates it; ≥ and ≤ were set here for values at or beyond the usual limits of such assays; conditions: source organism: Mycobacterium tuberculosis
HLA-B*51:01 [8] = assay: as above
HLA-B*57:01 [9] = assay: as above
HLA-B*46:01 = assay: as above
HLA-B*18:01 = assay: as above; conditions: source organism: Mycobacterium tuberculosis
HLA-B*08:02 = assay: as above; conditions: source organism: Mycobacterium tuberculosis str. Haarlem
HLA-B*15:17 = assay: as above; conditions: source organism: Mycobacterium tuberculosis
HLA-B*51:01 [10] = assay: IEDB peptide-MHC binding, purified MHC/competitive/fluorescence; filed as Kd, often an IC50 or EC50 that approximates it; ≥ and ≤ were set here for values at or beyond the usual limits of such assays; conditions: source organism: Vibrio vulnificus CMCP6
HLA-C*12:03 = assay: IEDB peptide-MHC binding, purified MHC/direct/fluorescence; filed as Kd, often an IC50 or EC50 that approximates it; ≥ and ≤ were set here for values at or beyond the usual limits of such assays
HLA-B*58:01 [11] = assay: IEDB peptide-MHC binding, purified MHC/competitive/radioactivity; filed as Kd, often an IC50 or EC50 that approximates it; ≥ and ≤ were set here for values at or beyond the usual limits of such assays
HLA-A*29:02 = assay: IEDB peptide-MHC binding, purified MHC/direct/fluorescence; filed as Kd, often an IC50 or EC50 that approximates it; ≥ and ≤ were set here for values at or beyond the usual limits of such assays; conditions: source organism: West Nile virus
HLA-B*15:09 = assay: as above
HLA-B*44:02 = assay: as above
HLA-B*57:01 [12] = assay: IEDB peptide-MHC binding, purified MHC/competitive/radioactivity; filed as Kd, often an IC50 or EC50 that approximates it; ≥ and ≤ were set here for values at or beyond the usual limits of such assays
HLA-A*30:01 [13] = assay: as above; conditions: source organism: Dengue virus 1 Brazil/97-11/1997
HLA-A*32:01 = assay: as above; conditions: source organism: Dengue virus 2 Jamaica/1409/1983
HLA-A*02:01 [14] = assay: IEDB peptide-MHC binding, purified MHC/competitive/fluorescence; filed as Kd, often an IC50 or EC50 that approximates it; ≥ and ≤ were set here for values at or beyond the usual limits of such assays; conditions: source organism: Salmonella enterica subsp. enterica serovar Typhi
HLA-B*39:01 = assay: as above; conditions: source organism: Salmonella enterica subsp. enterica serovar Typhi
HLA-A*68:02 = assay: IEDB peptide-MHC binding, purified MHC/competitive/radioactivity; filed as Kd, often an IC50 or EC50 that approximates it; ≥ and ≤ were set here for values at or beyond the usual limits of such assays; conditions: source organism: Dengue virus 1 Brazil/97-11/1997
HLA-A*01:01 [15] = assay: as above; conditions: source organism: Dengue virus 1 Brazil/97-11/1997
HLA-A*26:01 [16] = assay: as above; conditions: source organism: Dengue virus 1 Brazil/97-11/1997
[17] = source organism: Corynebacterium glutamicum ATCC 13032
[18] = source organism: Corynebacterium glutamicum
[19] = source organism: Mycobacterium tuberculosis C
[20] = source organism: Mycobacterium tuberculosis
[21] = source organism: Mycobacterium tuberculosis str. Haarlem
[22] = source organism: West Nile virus
[23] = source organism: Influenza A virus (A/camel/Mongolia/1982(H1N1))
[24] = source organism: Dengue virus 3 Martinique/1243/1999
[25] = source organism: Dengue virus 2 Jamaica/1409/1983
[26] = source organism: Dengue virus 1 Brazil/97-11/1997
[27] = source organism: Dengue virus 1 Singapore/S275/1990

Sequence: AEHDPWWAV
- Kd (HLA-B*45:06; [17]): ≥ 5 µM
- Kd (HLA-B*83:01; [17]): ≥ 5 µM
- Kd (HLA-B*15:42; [17]): ≥ 5 µM
- Kd (HLA-A*03:01; [18]): ≥ 20 µM
- Kd (HLA-B*58:01 [1]; [18]): ≥ 20 µM
- Kd (HLA-B*08:01; [18]): ≥ 20 µM
- Kd (HLA-B*40:01; [18]): 0.0549 µM
- Kd (HLA-A*02:01 [2]; [18]): ≥ 20 µM
- Kd (HLA-B*27:05; [18]): ≥ 20 µM
- Kd (HLA-A*31:01; [18]): ≥ 20 µM
- Kd (HLA-A*01:01 [3]; [18]): ≥ 20 µM
- Kd (HLA-A*11:01; [18]): ≥ 20 µM
- Kd (HLA-A*69:01; [18]): ≥ 20 µM
- Kd (HLA-B*07:02; [18]): 8.99 µM
- Kd (HLA-B*15:01 [4]; [18]): ≥ 20 µM
- Kd (HLA-A*26:01 [5]): ≥ 20 µM

Sequence: APRARTAAF
- Kd (HLA-B*45:06; [19]): ≥ 5 µM
- Kd (HLA-B*83:01; [19]): 0.0526 µM
- Kd (HLA-B*15:42; [19]): ≥ 5 µM
- Kd (HLA-B*15:01 [6]; [19]): ≥ 20 µM
- Kd (HLA-A*30:01 [7]): ≥ 20 µM
- Kd (HLA-A*03:01; [20]): ≥ 20 µM
- Kd (HLA-B*58:01 [1]; [20]): ≥ 20 µM
- Kd (HLA-B*08:01; [21]): 0.005 µM
- Kd (HLA-B*40:01; [20]): ≥ 20 µM
- Kd (HLA-A*02:01 [2]; [20]): ≥ 20 µM
- Kd (HLA-B*48:01): ≥ 20 µM
- Kd (HLA-B*27:05; [20]): ≥ 20 µM
- Kd (HLA-A*31:01; [20]): ≥ 20 µM
- Kd (HLA-B*51:01 [8]; [20]): ≥ 20 µM
- Kd (HLA-A*01:01 [3]; [20]): ≥ 20 µM
- Kd (HLA-A*11:01; [20]): ≥ 20 µM
- Kd (HLA-B*57:01 [9]; [20]): ≥ 20 µM
- Kd (HLA-B*46:01; [20]): ≥ 20 µM
- Kd (HLA-A*69:01; [20]): ≥ 20 µM
- Kd (HLA-B*18:01): 12.3 µM
- Kd (HLA-B*08:02): 0.23 µM

Sequence: APRGFRAAF
- Kd (HLA-B*45:06; [19]): ≥ 5 µM
- Kd (HLA-B*83:01; [19]): 0.038 µM
- Kd (HLA-B*15:42; [19]): ≥ 5 µM
- Kd (HLA-A*03:01; [20]): ≥ 20 µM
- Kd (HLA-B*58:01 [1]; [20]): ≥ 20 µM
- Kd (HLA-B*08:01; [21]): 0.1 µM
- Kd (HLA-B*40:01; [20]): ≥ 20 µM
- Kd (HLA-A*02:01 [2]; [20]): ≥ 20 µM
- Kd (HLA-B*48:01): ≥ 20 µM
- Kd (HLA-B*27:05; [20]): ≥ 20 µM
- Kd (HLA-A*31:01; [20]): ≥ 20 µM
- Kd (HLA-B*51:01 [8]; [20]): ≥ 20 µM
- Kd (HLA-A*01:01 [3]; [20]): ≥ 20 µM
- Kd (HLA-B*15:17): 5.45 µM
- Kd (HLA-A*11:01; [20]): ≥ 20 µM
- Kd (HLA-B*57:01 [9]; [20]): ≥ 20 µM
- Kd (HLA-B*46:01; [20]): ≥ 20 µM
- Kd (HLA-A*69:01; [20]): ≥ 20 µM
- Kd (HLA-B*18:01): ≥ 20 µM
- Kd (HLA-B*15:01 [4]; [20]): ≥ 20 µM

Sequence: FAFHTVFHI
- Kd (HLA-B*51:01 [10]): 0.0429 µM
- Kd (HLA-C*12:03; source organism: Vibrio vulnificus CMCP6): ≤ 0.001 µM

Sequence: FSLENVRLM
- Kd (HLA-C*12:03; source organism: Leishmania panamensis): 0.772 µM

Sequence: GAVFQEEQGW
- Kd (HLA-B*58:01 [11]; source organism: Dengue virus 4 Philippines/H241/1956): 0.0185 µM

Sequence: GRGPIRFVL
- Kd (HLA-A*03:01; [22]): ≥ 20 µM
- Kd (HLA-B*58:01 [1]; [22]): ≥ 20 µM
- Kd (HLA-A*29:02): ≥ 20 µM
- Kd (HLA-A*02:01 [2]; [22]): ≥ 20 µM
- Kd (HLA-A*31:01; [22]): ≥ 20 µM
- Kd (HLA-A*01:01 [3]; [22]): ≥ 20 µM
- Kd (HLA-B*15:09; [22]): ≥ 20 µM
- Kd (HLA-A*11:01; [22]): ≥ 20 µM
- Kd (HLA-B*57:01 [9]; [22]): ≥ 20 µM
- Kd (HLA-B*46:01; [22]): ≥ 20 µM
- Kd (HLA-A*69:01; [22]): ≥ 20 µM
- Kd (HLA-B*44:02; [22]): ≥ 20 µM
- Kd (HLA-B*07:02; [22]): ≥ 20 µM
- Kd (HLA-B*15:01 [4]; [22]): ≥ 20 µM

Sequence: HIPEVCLKW
- Kd (HLA-A*03:01; [23]): ≥ 20 µM
- Kd (HLA-B*58:01 [1]; [23]): 0.121 µM
- Kd (HLA-B*08:01; [23]): ≥ 20 µM
- Kd (HLA-B*40:01; [23]): ≥ 20 µM
- Kd (HLA-A*02:01 [2]; [23]): ≥ 20 µM
- Kd (HLA-B*27:05; [23]): ≥ 20 µM
- Kd (HLA-A*31:01; [23]): ≥ 20 µM
- Kd (HLA-A*01:01 [3]; [23]): ≥ 20 µM
- Kd (HLA-B*15:09; source organism: Influenza A virus H3N2): ≥ 20 µM
- Kd (HLA-B*46:01; [23]): ≥ 20 µM
- Kd (HLA-A*69:01; [23]): ≥ 20 µM
- Kd (HLA-B*44:02; [23]): ≥ 20 µM
- Kd (HLA-B*07:02; [23]): ≥ 20 µM
- Kd (HLA-B*15:01 [4]; [23]): ≥ 20 µM

Sequence: IASAIVLEFF
- Kd (HLA-B*58:01 [11]; [24]): 0.021 µM
- Kd (HLA-B*57:01 [12]; [24]): 0.883 µM

Sequence: KSIEDNPEI
- Kd (HLA-B*58:01 [11]; [25]): 0.00548 µM

Sequence: KVRKDIPQW
- Kd (HLA-B*58:01 [11]; [26]): 0.00597 µM
- Kd (HLA-B*57:01 [12]; [26]): 0.0355 µM
- Kd (HLA-A*30:01 [13]): 0.254 µM

Sequence: NASDRMGMGT
- Kd (HLA-B*58:01 [11]; [27]): 5.12 µM
- Kd (HLA-B*57:01 [12]; [27]): 0.652 µM

Sequence: PTAGVLARW
- Kd (HLA-B*57:01 [12]; [24]): 0.0297 µM

Sequence: RAVHADMGYW
- Kd (HLA-B*58:01 [11]; [25]): 0.000235 µM

Sequence: RVYSDHQAL
- Kd (HLA-B*51:01 [8]; [22]): ≥ 20 µM
- Kd (HLA-C*12:03; [22]): 0.65 µM

Sequence: STSLSMTCIA
- Kd (HLA-B*57:01 [12]; [26]): 2.08 µM

Sequence: TASILLWYAQ
- Kd (HLA-B*58:01 [11]; [25]): 1.01 µM
- Kd (HLA-B*57:01 [12]; [25]): 0.029 µM
- Kd (HLA-A*32:01): ≥ 33.1 µM

Sequence: TQFAGVVTV
- Kd (HLA-A*02:01 [14]): 0.0005 µM
- Kd (HLA-B*15:01 [6]; source organism: Salmonella enterica subsp. enterica serovar Typhi): 0.212 µM
- Kd (HLA-B*39:01): 0.0017 µM
- Kd (HLA-C*12:03; source organism: Salmonella enterica subsp. enterica serovar Typhi str. CT18): 0.003 µM

Sequence: TTSGTYVSAI
- Kd (HLA-A*68:02): 0.0205 µM
- Kd (HLA-A*01:01 [15]): ≥ 70.4 µM
- Kd (HLA-B*57:01 [12]; [26]): 0.179 µM
- Kd (HLA-A*26:01 [16]): 17 µM

Sequence: VASEGIKYTD
- Kd (HLA-B*58:01 [11]; [24]): 0.34 µM
- Kd (HLA-B*57:01 [12]; [24]): 5.16 µM

Sequence: YLQQNTHTL
- Kd (HLA-C*12:03; source organism: Homo sapiens): 0.09 µM
